We go through 7 molecules from patent publication US20220098306A1 (published 2022).

Read-outs that look alike come from different tables or passages of the source.

Usually Kd stands for a measure of binding affinity in units of concentration. A high value points to weaker binding.

The target of assay [1] is T1, cynomolgus B7H3.
T1 chain: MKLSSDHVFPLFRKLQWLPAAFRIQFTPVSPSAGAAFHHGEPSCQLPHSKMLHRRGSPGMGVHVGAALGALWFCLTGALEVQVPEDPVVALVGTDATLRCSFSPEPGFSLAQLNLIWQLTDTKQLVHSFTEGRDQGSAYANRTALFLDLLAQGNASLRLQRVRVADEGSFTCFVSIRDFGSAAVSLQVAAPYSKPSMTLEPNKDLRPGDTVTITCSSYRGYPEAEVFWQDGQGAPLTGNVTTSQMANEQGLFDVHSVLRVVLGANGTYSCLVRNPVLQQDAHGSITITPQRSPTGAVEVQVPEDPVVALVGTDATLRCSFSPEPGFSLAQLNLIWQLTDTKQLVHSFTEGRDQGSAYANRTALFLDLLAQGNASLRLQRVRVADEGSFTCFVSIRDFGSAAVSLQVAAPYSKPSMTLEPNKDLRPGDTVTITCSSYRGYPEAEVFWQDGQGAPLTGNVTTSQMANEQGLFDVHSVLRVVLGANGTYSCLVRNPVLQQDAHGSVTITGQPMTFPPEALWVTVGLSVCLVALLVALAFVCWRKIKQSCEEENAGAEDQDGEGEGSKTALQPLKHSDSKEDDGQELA

The target in assay [2] is T2, B7H3 (antigen of the affinity statements) (human, UniProt Q5ZPR3 29-466).
T2 chain: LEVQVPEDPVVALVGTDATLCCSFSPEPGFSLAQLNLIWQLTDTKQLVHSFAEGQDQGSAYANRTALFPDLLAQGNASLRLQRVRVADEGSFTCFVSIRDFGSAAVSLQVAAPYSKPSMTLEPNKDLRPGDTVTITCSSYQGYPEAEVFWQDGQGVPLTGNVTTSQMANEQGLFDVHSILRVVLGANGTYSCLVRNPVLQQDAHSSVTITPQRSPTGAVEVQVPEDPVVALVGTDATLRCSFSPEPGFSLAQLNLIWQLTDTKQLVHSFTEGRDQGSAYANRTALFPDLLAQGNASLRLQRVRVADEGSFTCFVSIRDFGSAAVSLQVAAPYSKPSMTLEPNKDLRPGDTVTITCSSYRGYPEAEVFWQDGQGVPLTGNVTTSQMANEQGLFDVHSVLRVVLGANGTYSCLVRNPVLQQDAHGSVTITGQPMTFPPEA

Assay [3] concerns the target T2, B7H3 (antigen of the affinity …). Briefly: -; monovalent KD.
The target of assay [4] is CD28 (antigen of the affinity determinations) (human, UniProt P10747 19-152).

B1: 3C4_H1_L1.1 (antibody, V domains shown)
VH: EVQLLESGGGLVQPGGSLRLSCAVSGFSLSSYGVIWVRQAPGKGLEYVSWVSSGGSTNYASSVKGRFTISRDTSKNTVYLQMNSLRAEDTAVYFCARGATNSGTDIWGPGTLVTVSS
VL: DIVMTQSPSSLSASVGDRVTITCRASQSINSWLSWYQQKPGKPPKLLIYGASNLASGVPSRFKGSGSGTDFTLTISSLQPEDFATYYCQNNYGIIAAGATFGGGTKVEIK
Regarding B1, the Kd in assay [1] was determined as 27.2 nM; in assay [2], 29.7 nM.

B2: 2E4A3_H1.3_1A7_L1 (antibody, V domains shown)
VH: QVQLVQSGAEVKKPGASVKVSCKASGYIFTNHYMHWVRQAPGQGLEWMGIISPSAGSTDYAQKFQGRVTMTRDTSTSTVYMELSSLRSEDTAVYYCARGGGSSPRLDYWGQGTLVTVSS
VL: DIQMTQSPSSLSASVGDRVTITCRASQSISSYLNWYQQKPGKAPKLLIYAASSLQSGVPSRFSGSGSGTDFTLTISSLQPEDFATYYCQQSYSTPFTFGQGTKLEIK
Take B2: the Kd was 7 nM in assay [1] and 12 nM in assay [2].

B3: 2E4A3_H1.22_1A7_L1 (antibody, V domains shown)
VH: QVQLVQSGAEVKKPGASVKVSCKASGYIFTNNYMHWVRQAPGQGLEWMGIISPSVGRTAYAQKFQGRVTMTRDTSTSTVYMELSSLRSEDTAVYYCARGGGSSPRLDYWGQGTLVTVSS
VL: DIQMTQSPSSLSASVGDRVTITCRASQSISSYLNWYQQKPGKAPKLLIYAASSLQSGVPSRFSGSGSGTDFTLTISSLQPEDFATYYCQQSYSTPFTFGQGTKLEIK
For B3, the Kd was 4.3 nM in assay [1] and 7.6 nM in assay [2].

B4: 2E4A3_H1.22_L1 (antibody, V domains shown)
VH: QVQLVQSGAEVKKPGASVKVSCKASGYIFTNNYMHWVRQAPGQGLEWMGIISPSVGRTAYAQKFQGRVTMTRDTSTSTVYMELSSLRSEDTAVYYCARGGGSSPRLDYWGQGTLVTVSS
VL: not shown
On to B4, for which the Kd in assay [1] is 5.3 nM; in assay [2], 6.1 nM.

B5: 38E2_H2_L1.1 (antibody, V domains shown)
VH: EVQLVESGGGLVKPGGSLRLSCAASGFSFSVGYYMCWVRQAPGKGLEWVSCIYVGSGSSGSTYYASVKGRFTISSDTAKTSVYLQMNSLRAEDTAVYFCARTAGSDWRLDLWGQGTLVTVSS
VL: DIVMTQSPSSLSASVGDRVTITCRASQSIANELSWYQQKPGKPPKLLIYRASTLTSGVPSRFKGSGSGTDFTLTISSLQPEDFATYYCQSTYNGRAIGFGGGTKVEIK
For B5, the Kd in assay [1] was 1.4 nM; in assay [2], 0.5 nM.

B6: XENP35153 (bispecific antibody)
heavy: EVQLLESGGGLVQPGGSLRLSCAVSGFSLSSYGVIWVRQAPGKGLEYVSWVSSGGSTNYASSVKGRFTISRDTSKNTVYLQMNSLRAEDTAVYFCARGATNSGTDIWGPGTLVTVSSASTKGPSVFPLAPSSKSTSGGTAALGCLVKDYFPEPVTVSWNSGALTSGVHTFPAVLQSSGLYSLSSVVTVPSSSLGTQTYICNVNHKPSDTKVDKKVEPKSCDKTHTCPPCPAPPVAGPSVFLFPPKPKDTLMISRTPEVTCVVVDVKHEDPEVKFNWYVDGVEVHNAKTKPREEEYNSTYRVVSVLTVLHQDWLNGKEYKCKVSNKALPAPIEKTISKAKGQPREPQVYTLPPSREEMTKNQVSLTCDVSGFYPSDIAVEWESDGQPENNYKTTPPVLDSDGSFFLYSKLTVDKSRWEQGDVFSCSVLHEALHSHYTQKSLSLSPGK
scFv-Fc: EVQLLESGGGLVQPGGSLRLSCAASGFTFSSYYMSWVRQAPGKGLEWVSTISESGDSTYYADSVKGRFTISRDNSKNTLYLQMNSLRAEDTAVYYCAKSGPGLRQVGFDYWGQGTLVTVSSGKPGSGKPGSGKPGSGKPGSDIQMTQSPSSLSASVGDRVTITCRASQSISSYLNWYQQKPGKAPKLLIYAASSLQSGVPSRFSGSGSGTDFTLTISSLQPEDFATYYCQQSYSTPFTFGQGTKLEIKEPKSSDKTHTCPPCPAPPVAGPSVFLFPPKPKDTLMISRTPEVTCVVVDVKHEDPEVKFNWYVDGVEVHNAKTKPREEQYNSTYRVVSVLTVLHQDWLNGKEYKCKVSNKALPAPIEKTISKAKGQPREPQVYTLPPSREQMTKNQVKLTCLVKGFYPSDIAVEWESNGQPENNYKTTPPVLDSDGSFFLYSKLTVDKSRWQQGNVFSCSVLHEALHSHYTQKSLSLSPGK
light: DIVMTQSPSSLSASVGDRVTITCRASQSINSWLSWYQQKPGKPPKLLIYGASNLASGVPSRFKGSGSGTDFTLTISSLQPEDFATYYCQNNYGIIAAGATFGGGTKVEIKRTVAAPSVFIFPPSDEQLKSGTASVVCLLNNFYPREAKVQWKVDNALQSGNSQESVTEQDSKDSTYSLSSTLTLSKADYEKHKVYACEVTHQGLSSPVTKSFNRGEC
For the molecule B6, the results for the Kd in assay [3] and in assay [4] were 0.5 nM and 360 nM, respectively.

B7: 6A1_H1L1 (antibody, V domains shown)
VH: EVQLLESGGGLVQPGGSLRLSCAASGFTFSNYYMAWVRQAPGKGLEWVSSISTGGGSTYYRDSVKGRFTISRDNSKSTLYLQMNSLRAEDTAVYYCTTDLSAIAATPFAYWGQGTLVTVSS
VL: DIQMTQSPSSLSASVGDRVTITCRASQNIYTSLAWYQQKPGKAPKLLIYNAHSLQTGIPSRFSGSGSGADFTLTISSLQPEDFATYFCQQYYSGLTFGSGTKLEIK
On to B7, for which the values for the Kd in assay [1] and in assay [2] were 4.2 nM and 8.1 nM, respectively.
